Assay results reported in PMC10786891, “Massively parallel profiling of RNA-targeting CRISPR-Cas13d”.
Positions count from the first letter of the chain named. In names and notes the source's numbering stands.

Target: T1, EsCas13d, nuclease-dead (Eubacterium siraeum, UniProt B0MS50, R295A;H300A;R849A;H854A)
T1 sequence: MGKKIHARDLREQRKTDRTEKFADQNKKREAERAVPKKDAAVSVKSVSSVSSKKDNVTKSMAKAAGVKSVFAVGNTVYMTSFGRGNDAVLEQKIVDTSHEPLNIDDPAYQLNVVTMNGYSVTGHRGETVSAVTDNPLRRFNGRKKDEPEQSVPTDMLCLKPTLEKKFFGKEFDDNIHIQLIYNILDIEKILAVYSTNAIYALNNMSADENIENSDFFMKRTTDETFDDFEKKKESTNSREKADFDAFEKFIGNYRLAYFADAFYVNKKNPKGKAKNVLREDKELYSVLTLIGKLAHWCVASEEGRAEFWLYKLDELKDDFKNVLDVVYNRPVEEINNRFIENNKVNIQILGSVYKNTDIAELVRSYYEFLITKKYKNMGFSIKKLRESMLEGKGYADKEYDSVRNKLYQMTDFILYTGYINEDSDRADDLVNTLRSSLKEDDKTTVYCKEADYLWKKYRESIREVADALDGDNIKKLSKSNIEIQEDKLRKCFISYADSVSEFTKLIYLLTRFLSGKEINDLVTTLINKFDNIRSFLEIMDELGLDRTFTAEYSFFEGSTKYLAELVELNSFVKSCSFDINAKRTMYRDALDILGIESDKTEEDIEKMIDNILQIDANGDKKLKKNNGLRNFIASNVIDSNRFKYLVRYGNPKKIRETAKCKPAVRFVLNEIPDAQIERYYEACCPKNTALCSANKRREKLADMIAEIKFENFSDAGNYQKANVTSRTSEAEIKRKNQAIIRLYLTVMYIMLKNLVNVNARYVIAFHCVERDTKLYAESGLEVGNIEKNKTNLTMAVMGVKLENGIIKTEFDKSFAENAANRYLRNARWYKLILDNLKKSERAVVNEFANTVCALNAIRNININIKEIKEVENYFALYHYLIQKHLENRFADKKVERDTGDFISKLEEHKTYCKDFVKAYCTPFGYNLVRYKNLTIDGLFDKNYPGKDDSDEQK
Test: crRNA (strand 1, pre-loaded); Mg2+; 40 mM Tris-HCl pH 7.5, 150 mM NaCl, 6 mM MgCl2, 1 mM DTT, 0.1% Tween-20, 0.2 mg/ml BSA; 25 C; 10 min per concentration, then washed
Conditions: tags: His6-TwinStrep-SUMO cleaved; N-terminal SNAP kept (SNAP-Surface 488); label: 3' end held by stalled T7 RNA polymerase

B1: target 2 MT 5'PFS UAU 3'PFS GCA (mixed)
RNA 1: CACCCGUGCAAAAUUGCAGGGGUCUAAAACCUUCUCCAAAUUGUUUCAUCCU
RNA 2: GGGAAUGGAUCCACAUCUACGAAUUCUAUAGGAUGAAACAAUUUGGAGAAGGCAAGAUCGGAAGAGCACACGU
Q: With B1 as the binder, how does the Kd read?
A: Its Kd is about 0.07 µM.

B2: target 2 MT 5'PFS CGC 3'PFS UAA (mixed)
RNA 1: B1 RNA 1
RNA 2: B1 RNA 2 with U27C, A28G, U29C, G52U, C53A
Q: Which Kd does the source give for B2 here?
A: Its Kd is 0.0039 ± 0.0006 µM.

B3: target 2 MT 5'PFS GCG 3'PFS UGU (mixed)
RNA 1: B1 RNA 1
RNA 2: B1 RNA 2 with U27G, A28C, U29G, G52U, C53G, A54U
Q: For B3, which Kd is on record?
A: The Kd was 0.0174 ± 0.0021 µM.

B4: target 2 MT 5'PFS CGC 3'PFS UAC (mixed)
RNA 1: B1 RNA 1
RNA 2: B1 RNA 2 with U27C, A28G, U29C, G52U, C53A, A54C
Q: With B4 as the binder, how does the Kd read?
A: The Kd was 0.0063 ± 0.0008 µM.

B5: target 2 MT 5'PFS GUA 3'PFS AGU (mixed)
RNA 1: B1 RNA 1
RNA 2: B1 RNA 2 with U27G, A28U, U29A, G52A, C53G, A54U
Q: For B5, which Kd is on record?
A: Its Kd is 0.0124 ± 0.0014 µM.

B6: target 2 MT 5'PFS ACC 3'PFS CCG (mixed)
RNA 1: B1 RNA 1
RNA 2: B1 RNA 2 with U27A, A28C, U29C, G52C, A54G
Q: With B6 as the binder, how does the Kd read?
A: Its Kd is 0.012 ± 0.005 µM.

B7: target 2 MT 5'PFS GGC 3'PFS UGC (mixed)
RNA 1: B1 RNA 1
RNA 2: B1 RNA 2 with U27G, A28G, U29C, G52U, C53G, A54C
Q: For B7, which Kd is on record?
A: Its Kd is 0.0132 ± 0.0013 µM.

B8: target 2 MT 5'PFS CUC 3'PFS ACU (mixed)
RNA 1: B1 RNA 1
RNA 2: B1 RNA 2 with U27C, A28U, U29C, G52A, A54U
Q: How did the Kd turn out when B8 was run?
A: Its Kd is 0.00214 ± 0.00028 µM.

B9: target 2 MT 5'PFS GUA 3'PFS AGA (mixed)
RNA 1: B1 RNA 1
RNA 2: B1 RNA 2 with U27G, A28U, U29A, G52A, C53G
Q: With B9 as the binder, how does the Kd read?
A: Its Kd is 0.0065 ± 0.0008 µM.

B10: target 1 C6G,U19C (mixed)
RNA 1: CACCCGUGCAAAAAUGCAGGGGUCUAAAACUGAGCGGAUAACCUCUCUAUGG
RNA 2: GGGAAUGGAUCCACAUCUACGAAUUCGUACCACAGAGAGGUUAUCGGCUCACCGAGAUCGGAAGAGCACACGU
Q: For B10, which Kd is on record?
A: The Kd was 0.0298 ± 0.0028 µM.

B11: target 1 insG 3' of 11,insA 3' of 11 (mixed)
RNA 1: B10 RNA 1
RNA 2: GGGAAUGGAUCCACAUCUACGAAUUCGUACCAUAGAGAGGUGAUAUCCGCUCACCGAGAUCGGAAGAGCACACGU
Q: With B11 as the binder, how does the Kd read?
A: Its Kd is 0.0152 ± 0.0008 µM.

B12: non-target control (mixed)
RNA 1: B10 RNA 1
RNA 2: GGGAAUGGAUCCACAUCUACGAAUUCGUUAGCUAGAAGGGGAAGUUGGUUAUGGAGAUCGGAAGAGCACACGU
Q: With B12 as the binder, how does the Kd read?
A: Its Kd is over 0.1 µM.

B13: target 1 insA 3' of 13,insC 3' of 12 (mixed)
RNA 1: B10 RNA 1
RNA 2: B11 RNA 2 with G40A, U41G, G42C, A43U
Q: How did the Kd turn out when B13 was run?
A: The Kd was 0.0063 ± 0.0009 µM.

B14: target 1 insC 3' of 17,insG 3' of 14 (mixed)
RNA 1: B10 RNA 1
RNA 2: B11 RNA 2 with A36C, G37A, A38G, G39A, U41G, A43U
Q: B14 was tested. Which Kd did it give?
A: The Kd was 0.038 ± 0.004 µM.

B15: target 1 insC 3' of 9,insA 3' of 7 (mixed)
RNA 1: B10 RNA 1
RNA 2: B11 RNA 2 with G42U, U44C, A45U, U46C, C47A
Q: For B15, which Kd is on record?
A: The Kd was 0.0104 ± 0.0004 µM.

B16: target 1 U3A,U10G (mixed)
RNA 1: B10 RNA 1
RNA 2: B10 RNA 2 with C33U, U42G, G46C, U49A
Q: With B16 as the binder, how does the Kd read?
A: The Kd was 0.061 ± 0.016 µM.

B17: target 1 A9C,U11C (mixed)
RNA 1: B10 RNA 1
RNA 2: B10 RNA 2 with C33U, U41C, A43C, G46C
Q: For B17, which Kd is on record?
A: The Kd was 0.02 ± 0.0017 µM.
